Reference: the supplement of paper PMC9170038

tested on: MS2 coat protein; assay: apparent KD of MS2 coat protein; higher = weaker reporter binding; conditions: Eterna round: R107; input ligand: theophylline 20 uM
Method in brief: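 With or without constant ligand, designed RNA switches in 100 mM Tris-HCl pH 7.5, 80 mM KCl and 4 mM MgCl2 were titrated with SNAP-549-labelled MS2 coat protein. Concentrations went up in twofold steps from 0.7 or 1.5 nM to 3 µM. The switches had been transcribed on-chip from Illumina sequencing clusters, and apparent KD is the per-design median of normalised cluster binding-curve fits.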

Sequence	apparent KD of MS2 coat protein
ACAUGAGGAUCACCCAUGUAUUACCGGGAAGGAGCGGCCGGAAGGCCAGGUAGGUCGCUCGGCGUCGUGCUGUAAAGCACGACGA [#1 Same State - Arginine A Attempt #27 (HarryS)]	18.4 nM
AUACAUGAGGAUCACCCAUGUGAUGGCCGGCGAGGACCGGUACGGCCGCCACUCGUGAUCCGUCCUGAGAGCAAAGCCCUCAACA [Lequcele]	450 nM
AAACGACAUGAGGAUCACCCAUGUGCCGAUACCAGCCGGAUAUACGGCCCUUGGCAGCGGAGUAAAUCCGGAGGACAAUGGGUAA [Same State Theophylline A GF6]	49.5 nM
AAUUGGCACUGAAGGAGCGAGUUUACCUAAAUAACAUGAGGAUCACCCAUGUAAAAUGGGACUCAGGUAGGUCGCAGUUGUCAAA [Same State Arginine B GF 22]	76.4 nM
GCUUGGGUGGCACAGCCCUGGCAGUGCGAUACCAGCACGGUAACGUGCCCUUGGCAGCGCACAUGAGGAUCACCCAUGUGGUGCG [#1 Exclusion - Theophylline A Attempt #25 (HarryS)]	197 nM
AUAAAUAAUAAAUAAGAUAAAAUGGGUGAACGAGGACCGGUACGGCCGCCACUCGGACAUGAGGAUCACCCAUGUCCAUGUGAAA [#22 Exclusion Tryptophan A]	19.8 nM
AAAACAAACUCGGCCGCCACUCCCUCCCACCCAAGGACAUGAGGAUCACCCAUGUGGCAAAGCCCGAGGACCGGGAGAAACAAAA [Same State - Trytophan B]	28.3 nM
AUGUAGAACCGAAGGAGCGCGAUAACAUGAGGAUCACCCAUGUAGCUUUGGUGGCCUCGAUCGCAGGUAGGUCGCGGAAGUAGUA [Exclusion - Arginine B / A]	213 nM
CCUCACGAAAUCGAUGAAAGCAUGUGGCACCGAGGACCGGUACGGCCGCCACUCGCAUCCACACAUGAGGAUCACCCAUGUAAGA [theeternabot_exclusion_MS2_Trp_A_9]	37.6 nM
AUGCAUAGCGGAAGGAGCGCAAUAGAAUGACAUGAGGAUCACCCAUGUAUGUGAUGUGGGUUGCAGGUAGGUCGCCGAGUGGUAU [Exclusion - Arginine B (Freestyle 1)]	98.8 nM
CUUGAUAACUGAAGGAGCGAGAAACCCUACAUGAGGAUCACCCAUGUAUACACGGGAACUUCUCAGGUAGGUCGCAGUAUGUCAA [Teveor]	89.3 nM
AAUAACAUGAGGAUCACCCAUGUAAAAGAUACCAGAUGCAUGAUGAUCCCUUGGCAGCUUAACGCUGAUUGGAAACAAUCAGCGA [Mat - Same State Theophlline A - Mod of Eli - D9]	62.1 nM
CAAGAAUGACGUACAGAUAACAAUAACGAUACCAGUACAUCAUUAUACCCUUGGCAGCGUUUCACAUGAGGAUCACCCAUGUACA [theeternabot_exclusion_MS2_Theo_A_14]	20.1 nM
UGUAUGGAAACAUGAGGAUCACCCAUGUGGCGAGGACCGGUACGGCCGCCACUCGAGCAGCAAGCGUGUAUGACGCUGCUGCAUG [SS-trypA-0]	60.6 nM
CAUAUAUAUAGAAGGAGCGUCGAAAAUGGGUAAACAUGAGGAUCACCCAUGUAAAGGGAACGACAGGUAGGUCGCUAUAUAUAUG [AstromonsSSArgB#3]	187 nM
CGACACAUGAGGAUCACCCAUGUAAUGACGCGAGGACCGGUACGGCCGCCACUCGCAUGCCAAUGAGCGCAUGCGGCCUGGGUAU [Exclusion Tryp A GF6]	23.6 nM
GGAUAGGACACGGCCGCCACUACCUAGGAUACUAGCAACAUUUGGGUACGUGAGGAUCACCCACGUAGGACCGGGUGUCCUAUCG	19.1 nM
GCACUACAUGAGGAUCACCCAUGUGCAGAUACCAGAGGUGUAUGCCUCCCUUGGCAGCUGCGUCGCUCUGGAAGCCUAUUGGUUU [Same State Theophylline A GF16]	25.5 nM
AAUAAACAUGAGGAUCACCCAUGUAUGGAAGGAGCGGUGAAUAAACCAGGUAGGUCGCCAGUGUGAGGGUCAUCUAUGUAAUCAA [Exclusion - Arginine A (Freestyle 3)]	58.3 nM

same assay, conditions: Eterna round: R107; input ligand: theophylline 2 mM

Sequence	apparent KD of MS2 coat protein
CCGUAGCUAGGAAGGAGCGCAUACUUCACAUGAGGAUCACCCAUGUCGAGACGUGAGUCAGUGCAGGUAGGUCGCCUAGCUAUGG [Same State - Arginine B (Freestyle 28)]	30.5 nM
UGUCAGCGAAAGUUGACAUGUCUUACCGGUCGAGGACCGGUACGGCCGCCACUCGAUCUCUCGCACAUGAGGAUCACCCAUGUCG [SS Tryp A #17]	12.8 nM
ACAUGAGGAUCACCCAUGUAAUUAACAGAAGGAGCGUGAUGGAUCACAGGUAGGUCGCUGUACUUAGAAAUAACUCUCAUGAAUA [JR_Nu_SSArginiA_Sub024]	16.6 nM
GGAGUAGGAAACUAUUCCAAUCCUCGUGAACGAGGACCGGUACGGCCGCCACUCGAUAAAUAAAUACAUGAGGAUCACCCAUGUA [Ex Tryptophan A 22]	34.1 nM
AGUUGCGUUGGAAGGAGCGGCAUGUGUGGGCCUCCUUACAAUACAUGAGGAUCACCCAUGUGCCAGGUAGGUCGCCAACACAGGU [Tiedmaqu]	96 nM
UUUUUCGCGGGCGAUACCAGCUUGAUCGUACUGGCCUGGUACAUGAGGAUCACCCAUGUAAGCCCUUGGCAGCGCGCGGGAGAAG [Exclusion - Theophylline B Attempt #1 (HarryS)]	20.2 nM
ACACAUGAGGAUCACCCAUGUGCGCUGGAAGGAGCGCAGAAUCAUGCAGGUAGGUCGCCAGUGCCCAUUACUAGAGGGAUAAGAG [Onriri]	102 nM
ACAUUUAACUGAAGGAGCGUGAUAUGUACAUGAGGAUCACCCAUGUCUUACAUGUGAUAUUCACAGGUAGGUCGCAGACUAAUGA [JR_ExcArginiB_Sub004]	23 nM
ACAUGAAGAACAGCGGUGGGCGCGCUCGAUACCAGUACUUUGAAAUACCCUUGGCAGCGACAUGAGGAUCACCCAUGUGAGAUGA [XTheo A #3]	49.5 nM
UGAUGGUACGGAAGGAGCGUGUAAGAACAAGAACAUGAGGAUCACCCAUGUAUUAAUUUAACACAGGUAGGUCGCCGAGUUAUUG [11.G]	23.2 nM
CUGUACAUCUCGGCCGCCACUGACAUGAGGAUCACCCAUGUAGUGCCGAUGAGAGACUUAUCGGCCAGGACCGGGAGGUGUGCAG [SSTryp B #32]	7.83 nM
GGACUAACCAGAAGGAGCGACACGCAGAAACUGCAAAUUCCUCUGCACGAGGAUCACCCGUGUCAGGUAGGUCGCUGGUUAGUCG	36.6 nM
GCACGACAUGAGGAUCACCCAUGUGCAGAUACCAGUAGGAUAUCCUACCCUUGGCAGCUGAGUAGAUCUGGAGGACUAUAGGUAA [Same State Theophylline A GF9]	21.2 nM
ACAUGAGGAUCACCCAUGUAUUACCGGGAAGGAGCGGCCGGAAGGCCAGGUAGGUCGCUCGGCGUCGUGCUGUAAAGCACGACGA [#1 Same State - Arginine A Attempt #27 (HarryS)]	12.2 nM
AUACAUGAGGAUCACCCAUGUGAUGGCCGGCGAGGACCGGUACGGCCGCCACUCGUGAUCCGUCCUGAGAGCAAAGCCCUCAACA [Lequcele]	199 nM
AAACGACAUGAGGAUCACCCAUGUGCCGAUACCAGCCGGAUAUACGGCCCUUGGCAGCGGAGUAAAUCCGGAGGACAAUGGGUAA [Same State Theophylline A GF6]	92.4 nM
AAUUGGCACUGAAGGAGCGAGUUUACCUAAAUAACAUGAGGAUCACCCAUGUAAAAUGGGACUCAGGUAGGUCGCAGUUGUCAAA [Same State Arginine B GF 22]	63.7 nM
AUAAAUAAUAAAUAAGAUAAAAUGGGUGAACGAGGACCGGUACGGCCGCCACUCGGACAUGAGGAUCACCCAUGUCCAUGUGAAA [#22 Exclusion Tryptophan A]	20.2 nM
AAAACAAACUCGGCCGCCACUCCCUCCCACCCAAGGACAUGAGGAUCACCCAUGUGGCAAAGCCCGAGGACCGGGAGAAACAAAA [Same State - Trytophan B]	26.4 nM
AUGUAGAACCGAAGGAGCGCGAUAACAUGAGGAUCACCCAUGUAGCUUUGGUGGCCUCGAUCGCAGGUAGGUCGCGGAAGUAGUA [Exclusion - Arginine B / A]	231 nM
